The experiment addresses C-192 ( | human, UniProt P0CG48 1-76; P0CG48 1-76, L73P (from the printed letters 55-TLSDYNIQKESTLHLVLRPR-74), Lys63 of the acceptor ubiquitin in an isopeptide bond with the C-terminal glycine of the donor ubiquitin (Lys63-linked diubiquitin) | C-terminal glycine of the donor ubiquitin in an isopeptide bond …). In words: SPR; Biacore T200; C-192 immobilised on a CM5 chip by amine coupling (5 ug/mL in 10 mM sodium acetate pH 5.5, 400 RU); GLP-1R, GCGR (3.906-1000 nM) or KLB (0.195-200 nM) injected at 50 uL/min for 4 min, dissociation 10 min; 1:1 kinetic binding model. The following applies: both partners purified. For orientation: Surface plasmon resonance follows binding to a sensor surface in real time, without labels.

B1: GCGR (receptor)
chain: AQVMDFLFEKWKLYGDQCHHNLSLLPPPTELVCNRTFDKYSCWPDTPANTTANISCPWYLPWHHKVQHRFVFKRCGPDGQWVRGPRGQPWRDASQCQMDGEEIEVQKEVAK
By Kd is commonly meant the equilibrium constant for the complex coming apart. Broadly, the kon is the second-order rate constant of association. Regarding B1, the Kd was found to be 19.4 nM and the kon worked out at 26300 M⁻¹ s⁻¹.
